Assay results as given in US12139520B2 (priority 2020, dated 2024).
Numbered stars: 1 amine (or outer) side, 2 acyl side, 3 side chain; on linkers, the order of the positions; unused ones are H or OH. Bridge positions count the residues as written; N and C are the ends. Square brackets hold non-standard residues; d marks the D form. Ends that are not written are not given here. * marks the point of attachment. C20 diacid = O=C(O)CCCCCCCCCCCCCCCCCCC(=O)*; γGlu = O=C(O)[C@H](CCC(=O)[*:2])N[*:1]; Hyp = O=C(O)[C@@H]1C[C@@H](O)CN1; Cit = NC(=O)NCCC[C@H](N)C(=O)O

T1: hAMY3R (human, UniProt P30988)
T1 sequence 1: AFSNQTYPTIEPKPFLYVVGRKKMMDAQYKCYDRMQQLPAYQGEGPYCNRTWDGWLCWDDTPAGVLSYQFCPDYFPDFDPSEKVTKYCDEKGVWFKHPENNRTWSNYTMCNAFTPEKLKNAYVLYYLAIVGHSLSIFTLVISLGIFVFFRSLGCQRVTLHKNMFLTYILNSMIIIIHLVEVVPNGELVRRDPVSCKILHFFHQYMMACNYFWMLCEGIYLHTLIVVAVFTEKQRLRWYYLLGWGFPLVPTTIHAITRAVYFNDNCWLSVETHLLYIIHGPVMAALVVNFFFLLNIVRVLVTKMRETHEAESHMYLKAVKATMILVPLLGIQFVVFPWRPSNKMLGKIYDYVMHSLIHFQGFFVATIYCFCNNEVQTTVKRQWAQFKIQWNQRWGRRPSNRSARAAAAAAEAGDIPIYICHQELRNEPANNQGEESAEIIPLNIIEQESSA
T1 sequence 2: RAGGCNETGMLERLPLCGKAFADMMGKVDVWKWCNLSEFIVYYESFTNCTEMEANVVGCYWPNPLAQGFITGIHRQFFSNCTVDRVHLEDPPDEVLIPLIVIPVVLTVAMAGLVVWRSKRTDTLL


Columns and labels:
hAMY3R = molecular target: T1, hAMY3R; experiment: cell-based or functional assay
hAM1R = hAM1R (human, UniProt Q16602); experiment: cell-based or functional assay

Binder	hAMY3R EC50 (cAMP) (hAMY3R)	hAM1R EC50 (cAMP) (hAM1R)
GCRTGTCTVQRLAHQIYQFTDKDKDNVAPRSKIGPNG[Hyp]-NH2 (disulfide 2-7 (inferred); ends not checked) [SEQ ID NO: 157]	0.047 nM	2980 nM
KCNTATCATQRLANFLVHSSNNFGAILPSTKIGPNGY [SEQ ID NO: 162]	0.051 nM	> 5000 nM
GCRFGTCTVQRLAHQIYQFTDKDKDNVAPRSNISPQG[Hyp]-NH2 (disulfide 2-7 (inferred); ends not checked) [SEQ ID NO: 158]	0.048 nM	2980 nM
GCRFGTCTVQRLAHQIYQFTDKDKDNVAPRSKISPQG[Hyp]-NH2 (disulfide 2-7 (inferred); ends not checked) [SEQ ID NO: 169]	0.063 nM	2980 nM
KCNFATCTVQRLAHQIYQFTDKDKDNVAPRTEVGSNG[Hyp]-NH2 (disulfide 2-7 (inferred); ends not checked) [SEQ ID NO: 17]	0.008 nM	295 nM
GCRMGTCTVQRLAHQIYQFTDKFKDNVAPRSKISPQT[Hyp]-NH2 (disulfide 2-7 (inferred); ends not checked) [SEQ ID NO: 173]	0.069 nM	> 5000 nM
{C20 diacid-γGlu}-KCNTATCTVQ[Cit]LAEQIAQFTDKDKDNVAPPTNVGSNG[Hyp]-NH2 (disulfide 2-7 (inferred); ends not checked) [SEQ ID NO: 153]	0.041 nM	> 5000 nM
GCRTGTCTVQRLAHQIYQFTDKDKDNVAPRTNVSPQG[Hyp]-NH2 (disulfide 2-7 (inferred); ends not checked) [SEQ ID NO: 178]	0.08 nM	2980 nM
GCRTGTCTVQRLAHQIYQFTDKDKDNVAPRSNVSPNG[Hyp]-NH2 (disulfide 2-7 (inferred); ends not checked) [SEQ ID NO: 166]	0.056 nM	2980 nM
GCRTGTCTVQRLAHQIYQFTDKDKDNVAPRSNIGPQG[Hyp]-NH2 (disulfide 2-7 (inferred); ends not checked) [SEQ ID NO: 165]	0.054 nM	2980 nM
GCRFGTCTVQRLAHQIYQFTDKDKDNVAPRSKVSPNG[Hyp]-NH2 (disulfide 2-7 (inferred); ends not checked) [SEQ ID NO: 175]	0.074 nM	2980 nM
GCRFGTCTVQRLANFLYQFTDKDKDNVAPRTNVGPQGY [SEQ ID NO: 16]	0.008 nM	125 nM
GCRTGTCTVQRLAHQIYQFTDKDKDNVAPRSNVGPNGY [SEQ ID NO: 177]	0.077 nM	2980 nM
GCRTGTCTVQRLAHQIYQFTDKDKDNVAPRTNVSPNG[Hyp]-NH2 (disulfide 2-7 (inferred); ends not checked) [SEQ ID NO: 163]	0.053 nM	2980 nM
GCRTGTCTVQRLAHQIYQFTDKDKDNVAPRTNISPNG[Hyp]-NH2 (disulfide 2-7 (inferred); ends not checked) [SEQ ID NO: 170]	0.064 nM	2980 nM
GCRFGTCTVQRLAHQIYQFTDKDKDNVAPRSKISPQT[Hyp]-NH2 (disulfide 2-7 (inferred); ends not checked) [SEQ ID NO: 168]	0.062 nM	> 5000 nM
GCRTGTCTVQRLAHQIYQFTDKDKDNVAPRTKIGPQG[Hyp]-NH2 (disulfide 2-7 (inferred); ends not checked) [SEQ ID NO: 161]	0.051 nM	2980 nM
GCRFGTCTVQRLAHQIYQFTDKDKDNVAPRSKISPQGY [SEQ ID NO: 154]	0.042 nM	2980 nM
GCRTGTCTVQRLAHQIYQFTDKDKDNVAPRTKVGPQGY [SEQ ID NO: 156]	0.047 nM	2980 nM
GCRTGTCTVQRLAHQIYQFTDKDKDNVAPRTNIGPQGY [SEQ ID NO: 160]	0.05 nM	2980 nM
GCRFGTCTVQRLAHQIYQFTDKDKDNVAPRTKISPQGY [SEQ ID NO: 164]	0.054 nM	106 nM
GCRTGTCTVQRLAHQIYQFTDKDKDNVAPRSNVSPNGY [SEQ ID NO: 172]	0.066 nM	2980 nM
GCRFGTCTVQRLAHQIYQFTDKDKDNVAPRTKVSPQGY [SEQ ID NO: 155]	0.045 nM	116 nM
GCRTGTCTVQRLAHQIYQFTDKDKDNVAPRTNVSPQGY [SEQ ID NO: 176]	0.076 nM	2980 nM
GCRFGTCTVQRLAHQIYQFTDKDKDNVAPRSKVSPQGY [SEQ ID NO: 174]	0.071 nM	133 nM
GCRWGTCTVQRLAHQIYQFTDKFKDNVAPRSKISPQT[Hyp]-NH2 (disulfide 2-7 (inferred); ends not checked) [SEQ ID NO: 171]	0.064 nM	> 5000 nM
{C20 diacid-γGlu}-KCNTATCTVIRLAHQIYQFTDKDKDNVAPPTNVGSNG[Hyp]-NH2 (disulfide 2-7 (inferred); ends not checked) [SEQ ID NO: 159]	0.048 nM	> 5000 nM
GCRFGTCTVQRLAHQIYQFTDKDKDNVAPRSKVSPQG[Hyp]-NH2 (disulfide 2-7 (inferred); ends not checked) [SEQ ID NO: 167]	0.056 nM	2980 nM
KCNFATCTVQRLAHQIYQFTDKDKDNVAPPTEVGSNGP [SEQ ID NO: 18]	0.008 nM	817 nM
